Columns and labels:
[1] = biological target: the molecule itself; assay: SEC-MALS; single purified proteins; Superdex 200 Increase 10/300 GL, SEC buffer (50 mM Tris-HCl pH 7.5, 100 mM NaCl, 10 mM MgCl2, 1 mM 2-mercaptoethanol) with 0.02% sodium azide, 0.5 mL/min; samples 5.7–7.1 µM; fractions analysed by SDS-PAGE and anti-His western blot
Cdc24 (S. cerevisiae) = biological target: T1, Cdc24 (S. cerevisiae) (UniProt P11433)
T1 sequence: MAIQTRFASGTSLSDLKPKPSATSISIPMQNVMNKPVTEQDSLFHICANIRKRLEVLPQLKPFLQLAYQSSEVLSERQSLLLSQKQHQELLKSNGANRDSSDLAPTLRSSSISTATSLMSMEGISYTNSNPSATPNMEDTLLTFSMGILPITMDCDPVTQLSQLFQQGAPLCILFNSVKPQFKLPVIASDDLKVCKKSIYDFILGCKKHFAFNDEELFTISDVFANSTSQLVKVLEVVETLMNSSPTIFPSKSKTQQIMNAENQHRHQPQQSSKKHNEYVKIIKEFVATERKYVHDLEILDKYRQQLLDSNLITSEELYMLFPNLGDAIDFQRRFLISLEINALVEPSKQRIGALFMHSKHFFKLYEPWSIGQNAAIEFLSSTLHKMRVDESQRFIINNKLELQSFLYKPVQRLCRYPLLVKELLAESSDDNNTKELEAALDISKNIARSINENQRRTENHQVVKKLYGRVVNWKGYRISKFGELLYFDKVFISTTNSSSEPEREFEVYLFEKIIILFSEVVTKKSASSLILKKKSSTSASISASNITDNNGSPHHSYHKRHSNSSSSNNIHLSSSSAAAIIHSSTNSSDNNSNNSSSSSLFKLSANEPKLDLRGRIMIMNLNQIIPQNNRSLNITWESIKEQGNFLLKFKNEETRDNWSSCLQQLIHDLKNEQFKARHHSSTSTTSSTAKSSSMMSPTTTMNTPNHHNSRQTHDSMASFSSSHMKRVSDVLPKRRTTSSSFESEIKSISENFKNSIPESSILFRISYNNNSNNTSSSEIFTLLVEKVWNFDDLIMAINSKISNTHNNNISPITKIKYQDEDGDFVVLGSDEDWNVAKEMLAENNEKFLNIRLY

[2] = biological target: Cdc24-DH3 (incl. mutation L339A, E340A) (S. cerevisiae) (UniProt P11433)

B1: GAP domain (aa 797–981 from Rga2) (domain or fragment, S. cerevisiae, UniProt Q06407 797-981, looked up)
chain: EKSTVPIIIRCCIDRIEKDDIGLNMEGLYRKSGSQTLVEEIENEFAQNNSLHSDTLSPKLNALLNQDIHAVASVLKRYLRKLPDPVLSFSIYDALIDLVRNNQLIERLPLNNDKFLDSPQKVTIYEMVLKSLLEIFKILPVEHQEVLKVLAAHIGKVRRCSERNLMNLHNLSLVFAPSLIHDFDG
notes: Rga2 GAP domain, S. cerevisiae, aa 797–981 (Smith et al, 2002); plasmid pRV138; also called Rga2's GAP domain; pRV138; source: E. coli BL21 DE3 pLysS, purified (HisTrap Excel, SEC Sephacryl S-300)
Question: Does B1 bind [1]?
Answer: binds

B2: His-Rga2 (Rga2 tagged with an N-terminal 6His purification tag) (enzyme, S. cerevisiae, UniProt Q06407 1-1009, looked up)
chain: MSADPINDQSSLCVRCNKSIASSQVYELESKKWHDQCFTCYKCDKKLNADSDFLVLDIGTLICYDCSDKCTNCGDKIDDTAIILPSSNEAYCSNCFRCCRCSNRIKNLKYAKTKRGLCCMDCHEKLLRKKQLLLENQTKNSSKEDFPIKLPERSVKRPLSPTRINGKSDVSTNNTAISKNLVSSNEDQQLTPQVLVSQERDESSLNDNNDNDNSKDREETSSHARTVSIDDILNSTLEHDSNSIEEQSLVDNEDYINKMGEDVTYRLLKPQRANRDSIVVKDPRIPNSNSNANRFFSIYDKEETDKDDTDNKENEIIVNTPRNSTDKITSPLNSPMAVQMNEEVEPPHGLALTLSEATKENNKSSQGIQTSTSKSMNHVSPITRTDTVEMKTSTSSSTLRLSDNGSFSRPQTADNLLPHKKVAPSPNKKLSRSFSLKSKNFVHNLKSKTSEMLDPKHPHHSTSIQESDTHSGWGVSSTHTNIRKSKAKKNPVSRGQSDSTIYNTLPQHGNFTVPEFNHKKAQSSLGSISKKQNSNDTATNRRINGSFTSSSSGHHIAMFRTPPLESGPLFKRPSLSSESAHHRSSSLQTSRSTNALLEDDSTKVDATDESATSLEKDFYFTELTLRKLKLDVRELEGTKKKLLQDVENLRLAKERLLNDVDNLTREKDKQSASSRESLEQKENIATSITVKSPSSNSDRKGSISNASPKPRFWKIFSSAKDHQVGDLESQQRSPNSSSGGTTNIAQKEISSPKLIRVHDELPSPGKVPLSPSPKRLDYTPDGSHLYGSSLQARCAYEKSTVPIIIRCCIDRIEKDDIGLNMEGLYRKSGSQTLVEEIENEFAQNNSLHSDTLSPKLNALLNQDIHAVASVLKRYLRKLPDPVLSFSIYDALIDLVRNNQLIERLPLNNDKFLDSPQKVTIYEMVLKSLLEIFKILPVEHQEVLKVLAAHIGKVRRCSERNLMNLHNLSLVFAPSLIHDFDGEKDIVDMKERNYIVEFILGNYRDIFKQA
notes: plasmid pRV014; Found only as higher-order oligomers in SEC-MALS; also called Rga2(I); pRV014; source: E. coli BL21 DE3 pLysS, purified (HisTrap Excel, SEC Sephacryl S-300); not shown: His6, N-terminal, kept
Question: With B2 as the binder, how does the interaction (synergy) rate k3,X1,X2 of Cdc42 GTPase cycling in Cdc42–Cdc24–Rga2 ((II)) mixtures (GTPase-Glo assay) (Cdc24 (S. cerevisiae)) read?
Answer: 51.7 µM^−4 h^−1

Question: What about the interaction (synergy) rate k3,X1,X2 of Cdc42 GTPase cycling in Cdc42–Cdc24–Rga2(I) mixtures (GTPase-Glo assay) (Cdc24 (S. cerevisiae)) of the same binder?
Answer: 87 µM^−4 h^−1

Question: Does B2 bind [1]?
Answer: binds

B3: Cdc24-DH3 (incl. mutation L339A, E340A) (enzyme)
chain: MAIQTRFASGTSLSDLKPKPSATSISIPMQNVMNKPVTEQDSLFHICANIRKRLEVLPQLKPFLQLAYQSSEVLSERQSLLLSQKQHQELLKSNGANRDSSDLAPTLRSSSISTATSLMSMEGISYTNSNPSATPNMEDTLLTFSMGILPITMDCDPVTQLSQLFQQGAPLCILFNSVKPQFKLPVIASDDLKVCKKSIYDFILGCKKHFAFNDEELFTISDVFANSTSQLVKVLEVVETLMNSSPTIFPSKSKTQQIMNAENQHRHQPQQSSKKHNEYVKIIKEFVATERKYVHDLEILDKYRQQLLDSNLITSEELYMLFPNLGDAIDFQRRFLISAAINALVEPSKQRIGALFMHSKHFFKLYEPWSIGQNAAIEFLSSTLHKMRVDESQRFIINNKLELQSFLYKPVQRLCRYPLLVKELLAESSDDNNTKELEAALDISKNIARSINENQRRTENHQVVKKLYGRVVNWKGYRISKFGELLYFDKVFISTTNSSSEPEREFEVYLFEKIIILFSEVVTKKSASSLILKKKSSTSASISASNITDNNGSPHHSYHKRHSNSSSSNNIHLSSSSAAAIIHSSTNSSDNNSNNSSSSSLFKLSANEPKLDLRGRIMIMNLNQIIPQNNRSLNITWESIKEQGNFLLKFKNEETRDNWSSCLQQLIHDLKNEQFKARHHSSTSTTSSTAKSSSMMSPTTTMNTPNHHNSRQTHDSMASFSSSHMKRVSDVLPKRRTTSSSFESEIKSISENFKNSIPESSILFRISYNNNSNNTSSSEIFTLLVEKVWNFDDLIMAINSKISNTHNNNISPITKIKYQDEDGDFVVLGSDEDWNVAKEMLAENNEKFLNIRLY
Question: Which rate k3,Cdc24-DH3 of Cdc42 GTPase cycling (GTPase-Glo assay) [2] does the source give for B3 here?
Answer: 0.702 µM^−2 h^−1

Reference: PMC13022455, “Oligomerization-dependent and synergistic regulation of Cdc42 GTPase cycling by a GEF and a GAP” (EMBO Reports, 2026)
